The values below are quoted from earlier work in paper PMC3951123.

What all share (test): SPR
(In general: SPR reads the build-up and loss of mass on a sensor chip optically.)

Data set [1] has as its target Syk linker B peptide SykLB-pYpY (Mus musculus) (UniProt P48025).
For data set [2], the target named is Syk linker B peptide SykLB-pYY (Mus musculus) (UniProt P48025).
Data set [3] has as its target Syk linker B peptide SykLB-YpY (Mus musculus) (UniProt P48025).

Turning to Vav1 SH2 (from UniProt P15498), the dissociation constant Kd was 7.4 µM in data set [1], 14.6 µM in data set [2] and 71 µM in data set [3].

For orientation: Kd means the constant that tells how readily two partners part at equilibrium.
